The text below walks through data of patent EP3085709A1 (Genor Biopharma Co., Ltd, dated 2016).

Where a chain is given by its changes, count along the chain named. In names and notes the source's numbering stands.

Broadly, the EC50 is the concentration giving half of the maximal effect. One may read the IC50 as the concentration needed to halve the response being measured.

T1: recombinant human RANKL (soluble, Gly136-Asp317, N-terminal 10 His, expressed in CHO cells) (human, UniProt O14788 136-317)
T1 sequence: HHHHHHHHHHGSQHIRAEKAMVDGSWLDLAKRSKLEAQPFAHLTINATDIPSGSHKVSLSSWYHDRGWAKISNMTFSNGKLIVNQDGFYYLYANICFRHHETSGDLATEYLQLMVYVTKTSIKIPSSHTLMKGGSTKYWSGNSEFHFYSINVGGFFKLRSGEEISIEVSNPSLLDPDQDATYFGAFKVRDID

T2: monkey RANKL (cynomolgus monkey, R & D Systems) (cynomolgus monkey, UniProt A0A7N9DBU4 140-317)
T2 construct: also called cynomolgus monkey RANKL
T2 sequence: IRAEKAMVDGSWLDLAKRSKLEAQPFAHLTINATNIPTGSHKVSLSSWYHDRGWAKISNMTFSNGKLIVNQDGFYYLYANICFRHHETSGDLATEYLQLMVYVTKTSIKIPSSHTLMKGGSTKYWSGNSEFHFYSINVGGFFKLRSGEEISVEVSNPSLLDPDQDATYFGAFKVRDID

T3: mouse RANKL (R & D Systems) (mouse, UniProt O35235 158-316, limits assumed)
T3 construct: also called murine RANKL
T3 sequence (looked up): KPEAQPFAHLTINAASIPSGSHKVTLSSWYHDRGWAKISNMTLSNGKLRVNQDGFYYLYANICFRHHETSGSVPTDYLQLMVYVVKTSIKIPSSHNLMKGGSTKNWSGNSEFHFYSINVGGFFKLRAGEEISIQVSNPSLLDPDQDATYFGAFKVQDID

B1: 114-5.7.14 (antibody, V domains shown)
VH: EVQLQQSGAELVKPGASVKLSCTASGFKIKDTYMHWVRQRPEQGLEWIGRIDSANGNIKYDPKFQGKATITADTSSKTAYLHLSSLTFEDTAVYYCSRPKSNYDFWLPYWGQGTLVTVSA
VL: DIQMTQTTSSLSASLGDRVTISCSASQGISNYLNWYQQKPDGTVKLLIYYTSSLHSGVPSRFSGSGSGTDYSLTISNLEPEDIATYYCQQYSKLPLTFGAGTKLELK
notes: Murine monoclonal antibody from hybridoma
B2: 114-7.19.12 (antibody, V domains shown)
VH: QVQLQQSGAELASPGASVKLSCKASGYTFTTYWLQWVKQRPGQGLEWIGAIYPGPGNTKYTQKFKDKATLTADKSASTAYMQLNSLTSEDSAVYYCARRGSRRGIAYWGQGTLVTVSA
VL: NIVLTQSPASLAVSLGQRATISCRASESVDSYGRSFMHWYQQRPGQPPTLLIYLASNLESGVPVRFSGSGSRTDFTLTIDPVEADDAATYYCQQDNEDPYTFGGGTKLEIK
notes: Murine monoclonal antibody purified from hybridoma supernatant
B3: 114-7.37.26 (antibody, V domains shown)
VH: B2 VH with A24T, N84S
VL: B2 VL with V64A
notes: as for B1
B4: 114-2.222 (antibody, V domains shown)
VH: EVQLQQSGAELVKPGASVKLSCTTSGFNIKATYIHWVQQRPEQGLEWIGRIDPANGNTKYDSKFQGKATITADTSSNTAYLQLSSLTSEDTAVYFCARSLHYYVFFDYWGQGTTLTVSS
VL: DIQMTQTTSSLSASLGDRVTISCSASQGISNYLNWYQQKPDGTVKLLIYSTSSLHSGVPSRFSGSGSGTDYSLTISSLEPEDIATYYCQQYSKLPLTFGAGTKLELKR
notes: as for B1
B5: 114-2.402 (antibody, V domains shown)
VH: EVQLQQSGTELVKPGASVKLSCTLFGFNIKATYMHWVRQRPEQGLEWIGRIDPPNGNTKYDPKFQDKATIKVDTSSNTAYLQLSSLTSEDTAVYYCAREFNRYDVWLAYWGQGTLVTVSA
VL: B4 VL with I29V, S77N, I83V, L96F, A100S, L106I
notes: as for B1
B6: 114-5.9.4 (antibody, V domains shown)
VH: EVQLQQSGAELVKPGASVKLSCTASGFNLKGTYIHWVKQRPGQGLEWIGRIDPANANTKYDPKFQGKATIRTDTSSNTAYLQLSSLTSEDTAVYFCSSPSGHYDVWFAYWGQGTLVTVSP
VL: B4 VL with T7P, R18T, G28D, V44L, S50Y, S77N, Y91F
notes: as for B1
B7: 114-7.38.48 (antibody, V domains shown)
VH: DVQLQESGPDLVKPSQSLSLTCTVTGYSITSAYSWHWIRQFPGNKLEWMGYIHFSGVTNYNPSLKSRISITRDASKNQFFLQLSSVTTEDTATYYCATRRETGFTYWGQGTLVTVSA
VL: DIVLTQSPATLSVTPGDSVSLSCRASQSISKNLHWYQQKSHESPRLLIKYASQSISGIPSRFSGSGSGTDFTLSINSVETEDFGIYFCQQINSWPLTFGAGTKLELK
notes: as for B1
B8: 114-6.6.29 (antibody, V domains shown)
VH: DVKLVESGGGLVKPGGSLKLSCAASGFTFSSYTMSWVRQTPEKRLEWVATISSGGSYTYYPDSVKGRFTISRDNAKNTLYLQMSSLKSEDTAMYYCTRDWDYYGTTYVGGYAMDYWGQGTSVTVSS
VL: DVLMTQTPLSLPVSLGDQASISCRSSQSIVHSNGNTYLEWYLQKPGQSPKLLIYKVSNRFSGVPDRFSGSGSGTDFTLKISRVEAEDLGVYYCFQGSHVPWTFGGGTKLEIK
notes: as for B1
B9: G2 (antibody, human IgG2, kappa, V domains shown)
VH: QVQLVQSGAELKKPGASVKLSCKASGYTFTTYWLQWVRQAPGQGLEWMGAIYPGPGNTKYTQKFKDRFTITADKSKSTAYMQLNSLKSEDSAVYYCARRGSRRGIAYWGQGTLVTVSA
VL: NIVLTQSPASLSVSLGQRATISCRASESVDSYGRSFMHWYQQRPGQAPRLLIYLASNLESGVPARFSGSGSRTDFTLTISSVEAEDEATYYCQQDNEDPYTFGGGTKLEIKG
notes: 293F cells
B10: G1 (antibody, human IgG2, kappa, V domains shown)
VH: B2 VH
VL: B9 VL with S12A, A47P, R49T, A64V, S80D, S81P, E85D, E87A
notes: expressed in 293F cells; also called murine antibody G1; mouse antibody (G1)
B11: G5 (antibody, human IgG2, kappa, V domains shown)
VH: B9 VH
VL: B9 VL with R43K, R49K, A64S, S81R, E87A
notes: 293F cells
B12: G6 (antibody, human IgG2, kappa, V domains shown)
VH: B9 VH with K12V, K13Q, A40T, F68V, K74T, K76T, K87R
VL: B9 VL
notes: 293F cells
B13: G7 (antibody, human IgG2, kappa, V domains shown)
VH: B9 VH with K12V, K13Q, A40T, F68V, K74T, K76T, K87R
VL: B9 VL with R43K, R49K, A64S, S81A, E87A
notes: 293F cells
B14: G3 (antibody, human IgG2, kappa, V domains shown)
VH: B9 VH
VL: B9 VL with R43K, R49K, A64S, S81A, E87A
notes: 293F cells
B15: G13 (antibody, human IgG2, kappa, V domains shown)
VH: B9 VH with K74T
VL: B9 VL with R43K, R49K, A64S, S81R, E87A
notes: 293F cells
B16: G11 (antibody, human IgG2, kappa, V domains shown)
VH: B9 VH with K74T
VL: B9 VL with R43K, R49K, A64S, S81A, E87A
notes: 293F cells
B17: G9 (antibody, human IgG2, kappa, V domains shown)
VH: B9 VH with K12V, K13Q, A40T, F68V, K74T, K76T, K87R
VL: B9 VL with R43K, R49K, A64S, S81R, E87A
notes: 293F cells

The target of the first experiment is T1, recombinant human RANKL (soluble, …). Kind of experiment: cell-based or functional assay.
For the molecule B1, the “EC50 value (ng/ml), inhibition of RAW264.7 differentiation” value is 315 ng/mL.

As for B2, the “EC50 value (ng/ml), inhibition of RAW264.7 differentiation” value was 267 ng/mL.

Take B3: the “EC50 value (ng/ml), inhibition of RAW264.7 differentiation” value stood at 470 ng/mL.

For B4, the “EC50 value (ng/ml), inhibition of RAW264.7 differentiation” value was found to be 311 ng/mL.

Consider B5, for which the “EC50 value (ng/ml), inhibition of RAW264.7 differentiation” value came to 396 ng/mL.

Take B6: the “EC50 value (ng/ml), inhibition of RAW264.7 differentiation” value was 340 ng/mL.

As to B7, the “EC50 value (ng/ml), inhibition of RAW264.7 differentiation” value was determined as 585 ng/mL.

In the case of B8, the “EC50 value (ng/ml), inhibition of RAW264.7 differentiation” value turned out to be 799 ng/mL.

For a further experiment, the target named is T2, monkey RANKL (cynomolgus monkey, R & D …). Nature of the experiment: direct ELISA, monkey RANKL coated.
Turning to B1, the EC50 amounted to 0.00686 µg/mL.

As to B2, the EC50 was 0.0129 µg/mL.

Turning to B3, the EC50 was 0.016 µg/mL.

B4 came in with an EC50 of 0.0153 µg/mL.

On to B5, for which it took 0.0111 µg/mL to reach a half-maximal effect (EC50).

Molecule B6 had an EC50 of 0.00967 µg/mL.

B7 returned a half-maximal effective concentration (EC50) of 0.0198 µg/mL.

The molecule B8 returned an EC50 of 0.0104 µg/mL.

In another experiment the target is T3, mouse RANKL (R & D Systems). Nature of the experiment: direct ELISA, mouse RANKL coated 1 µg/ml. A general note: An ELISA detects its analyte on a solid surface through an enzyme-linked reagent.
With B1, the binding result was “no binding”.

Take B2: the binding result is given as “no binding”.

As to B3, the binding result is reported as “no binding”.

On to B4, for which the binding result was “no binding”.

In the case of B5, the binding result is listed as “no binding”.

Regarding B6, the binding result is recorded as “no binding”.

Consider B7, for which the binding result is “no binding”.

As for B8, the binding result is reported as “no binding”.

For the next experiment, the target named is T1, recombinant human RANKL (soluble, …). Nature of the experiment: direct ELISA, human RANKL coated 1 µg/ml.
B1: the EC50 amounted to 0.00623 µg/mL.

In the case of B2, the EC50 was 0.00993 µg/mL.

On to B3, for which the half-maximal effective concentration (EC50) is 0.0159 µg/mL.

In the case of B4, the EC50 is 0.0137 µg/mL.

As to B5, the EC50 came to 0.0112 µg/mL.

For B6, the EC50 was determined as 0.0118 µg/mL.

For the molecule B7, the EC50 was 0.0185 µg/mL.

As to B8, the concentration giving a half-maximal response (EC50) was found to be 0.0117 µg/mL.

The target is the same in the next experiment. Nature of the experiment: ELISA, hRANKL coated 1 µg/ml; concentration at 50% Bmax; Plate#01.
As for B9, the EC50 came out at 0.00255 µg/mL.

As for B10, the EC50 was determined as 0.00147 µg/mL.

Regarding B11, the EC50 is 0.00221 µg/mL.

Take B12: the EC50 turned out to be 0.00147 µg/mL.

Turning to B13, the EC50 came out at 0.00182 µg/mL.

With B14, the EC50 is 0.00187 µg/mL.

For the next experiment the target is unchanged. Kind of experiment: ELISA, hRANKL coated 1 µg/ml; concentration at 50% Bmax; Plate#02.
With B10, the half-maximal effective concentration (EC50) is 0.00188 µg/mL.

On to B15, for which the EC50 was determined as 0.00234 µg/mL.

In the case of B16, the EC50 was found to be 0.0019 µg/mL.

Take B17: the 50% effective concentration (EC50) came to 0.00328 µg/mL.

For another experiment the target is unchanged. Nature of the experiment: competitive ELISA, RANK-Fc coated, antibody pre-incubated with 0.25 µg/ml hRANKL; Plate#01.
Take B9: the half-inhibitory concentration (IC50) was 0.3 µg/mL.

In the case of B10, the IC50 turned out to be 0.18 µg/mL.

On to B11, for which the half-maximal inhibitory concentration (IC50) was 0.29 µg/mL.

With B12, the concentration for half-maximal inhibition (IC50) is 0.29 µg/mL.

For the molecule B13, the IC50 is 0.29 µg/mL.

Regarding B14, the IC50 is 0.31 µg/mL.

For a further experiment the target is unchanged. Nature of the experiment: competitive ELISA, RANK-Fc coated, antibody pre-incubated with 0.25 µg/ml hRANKL; Plate#02.
As to B10, the half-inhibitory concentration (IC50) is ~0.35 µg/mL.

B15: the IC50 was determined as 0.31 µg/mL.

With B16, the IC50 came to 0.19 µg/mL.

As for B17, the IC50 stood at 0.5 µg/mL.

Another experiment shares this target. Nature of the experiment: competitive ELISA, RANK-Fc coated, antibody mixed with human RANKL (0.6 µg/ml, equal volume).
On to B1, for which the concentration for a half-maximal effect (EC50) came out at 0.33 µg/mL.

For B2, the half-maximal effective concentration (EC50) is 0.28 µg/mL.

Take B3: the concentration for a half-maximal effect (EC50) is 0.29 µg/mL.

For B4, the EC50 was 0.8 µg/mL.

With B5, the EC50 turned out to be 0.93 µg/mL.

Consider B6, for which the half-maximal effective concentration (EC50) stood at 0.28 µg/mL.

As for B7, the EC50 is 0.93 µg/mL.

B8: the EC50 came out at 0.39 µg/mL.
